Patent US20250304700A1, “ANTI-BLOOD DENDRITIC CELL ANTIGEN 2 ANTIBODIES AND USES THEREOF” (Biogen MA Inc., priority 2012, published 2025)

Legend:
[1] = tested on: bulk polyclonal human IgG; test: Cross-interaction chromatography (CIC); format: physicochemical
Description: Cross-interaction chromatography (CIC) is a high throughput method for preliminary assessment of the stickiness of mAb candidates (Jacobs et al., Pharm Res., 27 (1): 65-71 (2010)). In this method, bulk polyclonal human IgG is chemically coupled to an NHS-activated chromatography resin.

human BDCA2 ectodomain = target: T1, human BDCA2 ectodomain (Homo sapiens, UniProt Q8WTT0); test: Octet binding of mAbs on anti-human Fc tips to monomeric huBDCA2
T1 construct: huBDCA2 ectodomain: residues 257-425 above (underlined); murine IgG2a Fc (with G4S linker) (N, cleaved yes); made in house
T1 sequence (Q8WTT0 45-213): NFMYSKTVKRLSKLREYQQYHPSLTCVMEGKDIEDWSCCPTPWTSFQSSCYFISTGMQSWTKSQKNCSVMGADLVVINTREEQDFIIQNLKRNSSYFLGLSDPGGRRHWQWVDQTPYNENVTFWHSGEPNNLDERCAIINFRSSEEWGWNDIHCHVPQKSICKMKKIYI
Protocol: Site-directed mutagenesis was performed using Agilent's QuikChange II mutagenesis kit following the manufacturer's recommended protocol. The C95S variant was constructed using the mutagenic primer 5′ GCAACCTATTACTGTCAACAAAGTAATGAGGATCCTCGGAC 3′ (SEQ ID NO: 38) and its reverse complement, which introduced a new HincII site, producing plasmid pEAG2678. The C95T variant was constructed using the mutagenic primer 5′ CAACCTATTACTGTCAGCAAACTAATGAAGATCCTCGGACGTTCG 3′ (SEQ ID NO: 39) and its reverse complement, which removed a BamHI site, producing plasmid pEAG2679. Mutated plasmids were identified by screening for the introduced restriction site changes. The full-length light chain cDNA sequences in the resultant plasmids were confirmed by DNA sequencing. Wildtype ch24F4 and the C95S and C95T variant mAbs were expressed transiently in 293E cells by co-transfection of pYL672 and pYL671, pEAG2678 or pEAG2679. Conditioned medium was harvested at 2 days post-transfection. Titers (assayed by Octet on anti-human Fc tips) of both variants were similar to that of wildtype ch24F4, and Western blots of nonreducing SDS-PAGE indicated no gross aggregation or obvious clipping relative to wildtype ch24F4 mAb. […] Conditioned medium containing ch24F4 and the C95 variant mAbs was assayed by Octet for binding to human BDCA2 ectodomain. Antibodies from conditioned medium from transiently transfected cells were bound to anti-human Fc tips, then monomeric huBDCA2 was flowed over the Octet tips, to examine binding and dissociation.
Conditioned medium containing ch24F4 and all hu24F4 variant mAbs was assayed by Octet for binding to human BDCA2 ectodomain. The monomeric huBDCA2 ectodomain was prepared by proteolytic cleavage from the purified muIgG2a Fc-huBDCA2 fusion protein (relevant plasmid: pEAG2423). Antibodies from conditioned medium from transiently transfected cells were bound to anti-human Fc tips, and then monomeric huBDCA2 was flowed over the Octet tips, to examine binding and dissociation.
To explore the possibility of enhancing hu24F4 affinity by substitution at the position of the 24F4 version L1 CDR L3 unpaired cysteine (C95S in hu24F4 light chain expression vector pYL740), a number of version L1 variants were constructed by site-directed mutagenesis. Backmutation to the unpaired cysteine, i.e., S95C, was constructed by site-directed mutagenesis producing plasmid pYL749. Variants S95T, S95A, and S95V were constructed by site-directed mutagenesis producing plasmids pYL750, pYL751, and pYL752, respectively. The full-length light chain cDNA sequences in the resultant plasmids were confirmed by DNA sequencing. C95 variant hu24F4 mAbs were expressed transiently in 293E cells by co-transfection of hu24F4 H4 heavy chain pYL746 or hu24F4 H5 heavy chain pYL747 with hu24F4 L1 variant light chains C95S pYL740, S95C pYL749, S95T pYL750, S95A pYL751 or S95V pYL752 plasmids. Conditioned medium was harvested at 2 days post-transfection. Titers (assayed by Octet on anti-human Fc tips) of all variants were similar, and Western blots of nonreducing SDS-PAGE indicated no gross aggregation or obvious clipping. Conditioned medium containing the C95 variant mAbs was assayed by Octet for binding to human BDCA2 ectodomain. Antibodies from conditioned medium from transiently transfected cells were bound to anti-human Fc tips, then monomeric huBDCA2 was flowed over the Octet tips, to examine binding and dissociation. C95A variants had the slowest off-rates.

[2] = tested on: TLR9-induced IFNα production in whole blood; test: Whole blood assay, TLR9-induced IFNα production; format: cell-based, human; conditions: CpG-A stimulated whole blood
Protocol: Whole blood was drawn from heparinized venous blood of healthy donors. […] CpG-A was added at 200 μg/mL, which was determined to be optimal for stimulation of IFNα production in whole blood. Plates were incubated for 18 hours at 37° C. and supernatants collected for use in IFNα ELISA assays (PBL InterferonSource). The assays were performed according to the manufacturer's protocol. Shown in FIG. 15A is a representative experiment of 6 independent experiments performed.
Specifically, whole blood from 2 SLE patients or 2 healthy donors was provided by Bioreclamation LLC by overnight shipping. […] Plates were incubated for 18 hours at 37° C. and supernatants collected for use in IFNα ELISA assays (PBL InterferonSource). The assays were performed according to the manufacturer's protocol.
CpG-A was added at 75 μg/mL (open square), which was determined to be optimal for stimulation of IFNα production in whole blood. Plates were incubated for 18 hours at 37° C. and supernatants collected for use in IFNα ELISA assays (PBL InterferonSource).
The whole blood was then collected, lysed, and BDCA2 expression was assessed by flow cytometry using the FITC-conjugated non-cross blocking antibody 2D6. […] The supernatants were harvested and evaluated for IFNα by ELISA.

[3] = tested on: type I IFN transcription in purified pDCs; test: Q-PCR of type I IFN genes in CpG-A stimulated purified pDCs; format: cell-based, human; conditions: 5 μM CPG-A, 18 hours
Protocol: pDCs were purified using a two-step magnetic bead separation procedure (MACS kit, Miltenyi Biotec). […] Total assay volume was 200 μl/well. Plates were incubated for 18 hours at 37° C., and RNA was extracted from cells using Trizol reagent (Invitrogen corporation) and further purified using an RNeasy mini column (Qiagen Sciences). All primers and probes were purchased from Applied Biosystems Inc. Relative transcript quantities were determined for each sample by comparison to the oligonucleotide standard curve using Sequence Detection Software (Applied Biosystems Inc.) and normalized to a control (GAPDH).

[4] = Example 5, conditioned medium, hu24F4 variants
[5] = Example 6, conditioned medium, L1 position 95 variants

kdis (human BDCA2 ectodomain; [4]) [s⁻¹]	kon (human BDCA2 ectodomain; [4]) [M⁻¹ s⁻¹]	kdis (human BDCA2 ectodomain; [5]) [s⁻¹]	kon (human BDCA2 ectodomain; [5]) [M⁻¹ s⁻¹]	Substance	Solubility ([1]; CIC data table)	Rt-Test ([1]; IgG-derivatized column)	K′ ([1]; higher K′ values may indicate lower solubility)	Rt-Blank ([1]; non-derivatized column)	other cytokines and chemokines in whole blood [2]	transcription of type I IFNs [3]
0.000408	549000	0.000398	727000	24F4S: hu24F4 H4/L1 with C95S light chain; differs from BIIB059 by 1 amino acid residue	good	9.3	0.022	9.1		
				BIIB059: humanized IgG1 anti-BDCA2 antibody, mature heavy chain SEQ ID NO: 4 and mature light chain SEQ ID NO: 3					inhibition of a large array of cytokines and chemokines	inhibited transcription of all type I IFNs tested
